Results on 1 molecule are retold here after patent US20200010534A1 (SAGABIO, published 2020).

The target of assay [1] is T1, HpHSP60 fragment including positions 101-200 (Helicobacter pylori, UniProt B2UW12 101-200).
T1 construct: also called HSP 60 101-200
T1 sequence: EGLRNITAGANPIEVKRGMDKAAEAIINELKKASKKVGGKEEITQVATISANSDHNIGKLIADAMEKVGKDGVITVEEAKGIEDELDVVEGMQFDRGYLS
Nature of the assay: recognition of HpHSP60 fragments by the antibody (spot/blot, FIG. 15).

In assay [2] the target is T2, HpHSP60 fragment Δ[1], positions 134-200 of HpHSP60 (Helicobacter pylori, UniProt B2UW12 134-200).
T2 sequence: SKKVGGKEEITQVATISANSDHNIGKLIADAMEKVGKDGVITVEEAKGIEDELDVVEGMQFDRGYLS
Nature of the assay: recognition of HpHSP60 fragments by the antibody (spot/blot, FIG. 16).

The target of assay [3] is T3, HpHSP60 fragment Δ[5], positions 101-168 of HpHSP60 (Helicobacter pylori, UniProt B2UW12 101-168).
T3 sequence: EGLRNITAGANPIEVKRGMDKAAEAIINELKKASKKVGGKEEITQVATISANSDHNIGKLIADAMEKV
The description is as above.

B1: LHP-1 (9E4) antibody (antibody, V domains shown)
VH: EVHLVESGGDLVKPGGSLKLSCAASGFTFSSFGMSWVRQTPDKRLEWVATISNGGSYTYYPDSVKGRFTISRDNAKNTLYLQMSSLKSEDTAMYYCTRQGLRRRGAMDYWGQGTSVTVSS
VL: DIVLTQSPASLAVSLGQRATISCKASQSVDYDGDVFLNWYQQKPGQPPKLLIYAASNLESGIPARFSGSGSGTDFTLNIHPVEEDDAATYYCQQSNEVPWTFGGGTKLEIK
notes: Mouse monoclonal antibody from hybridoma 9E4 (ATCC PTA-122900); The variable regions are tied to the deposited hybridoma only in the claims; also called LHP-1 (9E4) mAb; monoclonal antibody produced by hybridoma ATCC PTA-122900
Take B1: the binding result in assay [1] was “binds”; in assay [2], “binds”; in assay [3], “no binding”.
